Like-named read-outs stand apart in the source and are kept apart here.
T1: MBP-Mos-1 transposase (MBP-Tnp) (Drosophila mauritiana, UniProt Q7JQ07 SEQ:1-345)
T1 sequence: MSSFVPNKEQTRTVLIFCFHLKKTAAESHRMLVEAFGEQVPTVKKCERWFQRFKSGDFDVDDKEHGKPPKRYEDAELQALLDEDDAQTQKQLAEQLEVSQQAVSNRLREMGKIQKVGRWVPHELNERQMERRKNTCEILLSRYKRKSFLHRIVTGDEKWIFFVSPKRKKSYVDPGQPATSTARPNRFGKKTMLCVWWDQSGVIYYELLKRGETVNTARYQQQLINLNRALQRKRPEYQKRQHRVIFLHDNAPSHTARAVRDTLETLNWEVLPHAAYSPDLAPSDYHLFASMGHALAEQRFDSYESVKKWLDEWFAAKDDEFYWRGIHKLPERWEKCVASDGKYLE

B1: ITRSelex SEQ 40 (dsDNA)
DNA 1: GCGGGTGTGAAAATATGAAATATTCACT
DNA 2: AGTGAATATTTCATATTTTCACACCCGC
B2: ITRSelex SEQ 44 (dsDNA)
DNA 1: ATAGTGTTTAAAGCTTACT
DNA 2: AGTAAGCTTTAAACACTAT
B3: ITRSelex SEQ 41 (dsDNA)
DNA 1: GAAGAGTTATAACTCAAGAAAACTGAAT
DNA 2: ATTCAGTTTTCTTGAGTTATAACTCTTC
B4: ITRSelex SEQ 42 (dsDNA)
DNA 1: CGATTACAATTATGAAAACTTTCCT
DNA 2: AGGAAAGTTTTCATAATTGTAATCG
B5: ITRSelex SEQ 43 (dsDNA)
DNA 1: GGAGAAATGGTAGAATAGTTTA
DNA 2: TAAACTATTCTACCATTTCTCC
B6: ITRSelex SEQ 45 (dsDNA)
DNA 1: GTCAGTGATGTCACCAACGTATGGAATATCGTAT
DNA 2: ATACGATATTCCATACGTTGGTGACATCACTGAC

Key:
[1] = target: T1, MBP-Mos-1 transposase (MBP-Tnp); test: EMSA; conditions: complex stability versus ITR alone; MBP tag assumed
[2] = target: T1, MBP-Mos-1 transposase (MBP-Tnp); conditions: active protein (Bmax) versus ITR3'; same Kd as ITR3'; inventors' prior research
[3] = target: T1, MBP-Mos-1 transposase (MBP-Tnp); test: EMSA; clone number to SEQ mapping not given; conditions: tags: N-terminal MBP (pMalC2x); chain copies: 2

Molecule | binding result [3] | further results
ITR3'/UTR3' |  | binding signal [1]: 4 fold
Mos-1 ITR5' |  | binding signal [2]: 0.1 fold
ITR3'/UTR5' |  | binding signal [1]: 4 fold
B1 | binds | 
B2 | binds | 
B3 | binds | 
B4 | binds | 
B5 | binds | 
B6 | binds | 

From patent US20100291682, “SYSTEM FOR TRANSPOSING HYPERACTIVE RECOMBINANT DERIVATIVES OF MOS-1 TRANSPOSON” (published 2010)
